Reference: paper PMC3168117 (Nature structural & molecular biology, 2011)

Biological target: the molecule itself
Test: SEC-MALS

B1: VopL W3-C (residues 115-484: three WH2 motifs and the VCD) (domain or fragment, Vibrio parahaemolyticus, UniProt Q87GE5 115-484, looked up)
chain: NLSKGAPKSSSNSLDSVNEDHSKLMEQIRQGVKLKSATKSLSADKSSADAHSKLMEELLTGGRKLKKVATSDIPAPPPLPSASTSKSPDSRNALLSEIAGFSKDRLRKTGSLETLNSSQSKDKESFEPTTHERLLSEDLFKQSPKLSEQELDELANNLADYLFQAADIDWHQVISEKTRGLTTEEMAKSEHRYVQAFCREILKYPDCYKSADVASPESPKSGGGSVIDVALKRLQTGRERLFTTTDEKGNRELKKGDAILESAINAARMAISTEEKNTILSNNVKSATFEVFCELPCMDGFAEQNGKTAFYALRAGFYSAFKNTDTAKQDITKFMKDNLQAGFSGYSYQGLTNRVAQLEAQLAALSAKLS
  stoichiometry N: 2
